Assay results taken from article PMC10641899, “Identification of HuR–RNA Interfering Compounds by Dynamic Combinatorial Chemistry and Fluorescence Polarization”.

Biological target: HuR RRM1+2 (RRM1/2) (UniProt Q15717 1-186)
Assay: fluorescence polarization; 2.4 uM HuR RRM1/2, 45 nM RNA, 15% DMSO; complex 105 mP vs free RNA 35 mP; FP: PBS (20 mM sodium phosphate, 150 mM NaCl, 1 mM DTT, 0.05% Pluronic-127, 15% DMSO), 293 K; pH not stated
Conditions: protein: recombinant; tags: N-terminal His6-TEV, tag cleaved and removed; label: 5'-FAM; single strand

Sequence of HuR RRM1+2 (RRM1/2) (Q15717 1-186): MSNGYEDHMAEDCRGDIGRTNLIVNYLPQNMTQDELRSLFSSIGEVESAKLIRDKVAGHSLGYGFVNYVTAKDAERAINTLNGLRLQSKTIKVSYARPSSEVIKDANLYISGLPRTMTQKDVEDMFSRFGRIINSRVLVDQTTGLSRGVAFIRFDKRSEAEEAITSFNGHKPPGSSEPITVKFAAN

UAUUUAUUUA (ssRNA) [5'-FAM ARE RNA probe]: binds.
